Measured values reported in paper PMC3664818 (Nucleic Acids Research, 2013).

Biological target: T1, (His)6-Lif1-K301R (S. cerevisiae, UniProt P53150 1-421, K301R)
T1 sequence (looked up): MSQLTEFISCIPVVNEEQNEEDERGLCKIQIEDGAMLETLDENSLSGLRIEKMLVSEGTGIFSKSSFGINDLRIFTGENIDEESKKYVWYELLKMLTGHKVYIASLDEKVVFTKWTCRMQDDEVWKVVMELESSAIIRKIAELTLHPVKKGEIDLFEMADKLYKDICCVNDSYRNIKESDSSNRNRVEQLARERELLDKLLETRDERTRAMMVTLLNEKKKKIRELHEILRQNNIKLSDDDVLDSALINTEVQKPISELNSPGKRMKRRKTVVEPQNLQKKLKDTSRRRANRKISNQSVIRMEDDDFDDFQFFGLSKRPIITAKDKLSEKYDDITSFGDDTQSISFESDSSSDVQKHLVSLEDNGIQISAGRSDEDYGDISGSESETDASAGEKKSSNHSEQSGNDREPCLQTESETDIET
Experiment: pull-down

binding result: binds
B1: MBP-Nej1 (natural protein, S. cerevisiae, UniProt Q06148 1-342, looked up)
chain: MDSELKGQQLSDAEWCVKKINGEGNCLLLFLPMSSPTTIVMIVLVSLERLVPYVFKLSQTQLSQQCQSQGFTDSISLNLIKLKLMDILQAPQEINQIGLVDSNLVFSFDVSADITVSINSVPSHVTKDMFYMILQSLCMLLLKLVNLSTQYHYVQRDILNEKQKCLDFLLISLRDLDGGSKVISQWAPENSKNYESLQQCTDDDIIKKLLHKGKFQHQEFLADSLKTLLSLRNKFQDVSRFEESGELNKKERVRFPAVNHFYNDDFELQADPTNEARPNSRGKIKPKTDFKPKSRESSTSSQLRLENFSESEATPEKTKSSSSLVEEYPQKKRKFGKVRIKN
